Results: paper PMC5589798, “Alpha subunit-dependent glycine receptor clustering and regulation of synaptic receptor numbers” (Scientific Reports, 2017)

Columns and labels:
[1] = biological target: endogenous α subunits of spinal cord neurons; test: PALM-based single molecule counting; fixed lentivirus-infected spinal cord neurons; bursts of Dendra2 detections counted in 120 nm clusters in sparse areas of the extrasynaptic plasma membrane, binomial fit
[2] = biological target: T1, untagged GlyRβ (UniProt P48167 23-497); test: PALM-based single molecule counting; fixed transfected COS-7 cells; bursts of Dendra2 detections counted in 120 nm clusters, binomial fit; Dendra2-GlyR subunits alone or with untagged subunits; settings: partners not purified
T1 construct: glycine receptor beta subunit, untagged; also called untagged β subunits; non-fluorescent subunits; source: COS-7, transfected, in cells

[3] = biological target: T2, endogenous GlyRβ subunits of spinal cord neurons ( (endogenous in rat or mouse …, UniProt P20781 23-496)); test: PALM-based single molecule counting; fixed lentivirus-infected spinal cord neurons; bursts of Dendra2 detections counted in 120 nm clusters in sparse areas of the extrasynaptic plasma membrane, binomial fit; settings: partners not purified
T2 construct: endogenous glycine receptor beta subunit of cultured spinal cord neurons; also called endogenous counterparts; source: endogenous, cultured spinal cord neurons, fixed cells

[4] = biological target: T3, endogenous extrasynaptic GlyRs (labelled by QDs on endogenous GlyRα1) (mouse (endogenous in spinal cord …, UniProt Q64018 29-457; P48168 23-496); test: PALM-based single molecule counting at QD-labelled receptors; fixed mouse spinal cord neurons; endogenous GlyRα1 labelled with mAb2b and Fab'-QD605, mEos2-gephyrin bursts counted at the QD sites in the extrasynaptic membrane; settings: partners not purified
T3 construct: endogenous glycine receptor beta subunit of mouse spinal cord neurons; the discussion calls extrasynaptic GlyRs α3:β2 heteromers; Only the α1 subunit was labelled; also called endogenous GlyRs; receptor complexes; source: endogenous, mouse spinal cord neurons, fixed cells; copies: 3 + 2

[5] = biological target: the molecule itself; test: PALM-based single molecule counting; fixed COS-7 cells expressing mEos2-gephyrin; cluster diameter 150 nm, burst length < 60 s, binomial fit

T2 sequence (P20781 23-496): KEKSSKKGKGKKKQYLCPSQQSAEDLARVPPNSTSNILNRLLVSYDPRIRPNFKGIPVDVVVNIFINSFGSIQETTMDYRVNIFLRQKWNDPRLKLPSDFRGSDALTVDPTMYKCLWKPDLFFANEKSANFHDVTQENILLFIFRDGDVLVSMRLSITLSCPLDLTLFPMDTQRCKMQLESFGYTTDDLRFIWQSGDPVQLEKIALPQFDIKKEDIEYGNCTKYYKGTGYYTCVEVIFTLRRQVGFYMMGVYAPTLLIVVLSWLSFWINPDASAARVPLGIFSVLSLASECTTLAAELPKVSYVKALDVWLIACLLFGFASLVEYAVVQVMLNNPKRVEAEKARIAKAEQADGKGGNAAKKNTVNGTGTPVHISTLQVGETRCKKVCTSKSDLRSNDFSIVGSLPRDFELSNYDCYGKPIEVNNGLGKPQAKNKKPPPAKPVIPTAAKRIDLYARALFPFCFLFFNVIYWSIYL
T1 sequence (P48167 23-497): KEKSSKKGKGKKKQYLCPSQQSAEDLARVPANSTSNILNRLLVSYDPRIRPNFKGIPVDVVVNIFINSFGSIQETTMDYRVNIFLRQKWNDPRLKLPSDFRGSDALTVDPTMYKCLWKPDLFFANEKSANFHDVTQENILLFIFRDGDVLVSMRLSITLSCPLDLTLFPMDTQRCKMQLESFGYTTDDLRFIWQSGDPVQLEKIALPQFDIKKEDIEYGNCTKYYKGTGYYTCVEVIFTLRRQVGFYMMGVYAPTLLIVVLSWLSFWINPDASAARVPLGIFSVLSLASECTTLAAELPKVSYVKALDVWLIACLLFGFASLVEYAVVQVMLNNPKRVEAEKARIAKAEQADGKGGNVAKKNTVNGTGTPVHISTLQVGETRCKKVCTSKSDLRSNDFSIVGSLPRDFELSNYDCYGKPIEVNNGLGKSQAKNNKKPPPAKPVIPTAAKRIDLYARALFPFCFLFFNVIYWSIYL
T3 sequence (P48168 23-496, one chain of several): as the sequence (P20781 23-496) above, with A23P counted along it

Molecule: Dendra2-GlyRβ (FU-SP-myc-Dendra2-GlyRβ) (from UniProt P48167-1 23-497) (receptor)
- stoichiometry N [1]: 1.5 α:β (3:2)

B1: Dendra2-GlyRα3 (FU-SP-myc-Dendra2-GlyRα3L) (receptor, human, UniProt O75311-1 34-464, looked up)
chain: ARSRSAPMSPSDFLDKLMGRTSGYDARIRPNFKGPPVNVTCNIFINSFGSIAETTMDYRVNIFLRQKWNDPRLAYSEYPDDSLDLDPSMLDSIWKPDLFFANEKGANFHEVTTDNKLLRIFKNGNVLYSIRLTLTLSCPMDLKNFPMDVQTCIMQLESFGYTMNDLIFEWQDEAPVQVAEGLTLPQFLLKEEKDLRYCTKHYNTGKFTCIEVRFHLERQMGYYLIQMYIPSLLIVILSWVSFWINMDAAPARVALGITTVLTMTTQSSGSRASLPKVSYVKAIDIWMAVCLLFVFSALLEYAAVNFVSRQHKELLRFRRKRKNKTEAFALEKFYRFSDMDDEVRESRFSFTAYGMGPCLQAKDGMTPKGPNHPVQVMPKSPDEMRKVFIDRAKKIDTISRACFPLAFLIFNIFYWVIYKILRHEDIHQQQD
notes: human glycine receptor alpha-3 subunit, long isoform (α3L); Five copies hold for the homomeric receptor (expressed alone in COS-7); also called homomeric Dendra2-GlyRα3; source: COS-7, transfected (FuGENE 6), in cells; spinal cord neurons, lentivirus infected, in cells; not shown: myc, N-terminal, kept; Dendra2, N-terminal, kept
- stoichiometry N [2]: 3 α3 subunits per complex
- stoichiometry N [3]: 1.5 α:β (3:2)

B2: mEos2-gephyrin (FU-mEos2-gephyrin) (natural protein, UniProt Q03555 1-768, looked up)
chain: MATEGMILTNHDHQIRVGVLTVSDSCFRNLAEDRSGINLKDLVQDPSLLGGTISAYKIVPDEIEEIKETLIDWCDEKELNLILTTGGTGFAPRDVTPEKFPTFPFCGLQKGATKEVIEREAPGMALAMLMGSLNVTPLGMLSRPVCGIRGKTLIINLPGSKKGSQECFQFILPALPHAIDLLRDAIVKVKEVHDELEDLPSPPPPLSPPPTTSPHKQTEDKGVQCEEEEEEKKDSGVASTEDSSSSHITAAALAAKIPDSIISRGVQVLPRDTASLSTTPSESPRAQATSRLSTASCPTPKQIRRPDESKGVASRVGSLKVQSRCSSKENILRASHSAVDITKVARRHRMSPFPLTSMDKAFITVLEMTPVLGTEIINYRDGMGRVLAQDVYAKDNLPPFPASVKDGYAVRAADGPGDRFIIGESQAGEQPTQTVMPGQVMRVTTGAPIPCGADAVVQVEDTELIRESDDGTEELEVRILVQARPGQDIRPIGHDIKRGECVLAKGTHMGPSEIGLLATVGVTEVEVNKFPVVAVMSTGNELLNPEDDLLPGKIRDSNRSTLLATIQEHGYPTINLGIVGDNPDDLLNALNEGISRADVIITSGGVSMGEKDYLKQVLDIDLHAQIHFGRVFMKPGLPTTFATLDIDGVRKIIFALPGNPVSAVVTCNLFVVPALRKMQGILDPRPTIIKARLSCDVKLDPRPEYHRCILTWHHQEPLPWAQSTGNQMSSRLMSMRSANGLLMLPPKTEQYVELHKGEVVDVMVIGRL
notes: gephyrin; neither species nor isoform is stated; In neurons, endogenous gephyrin is also present and dilutes the detected mEos2-gephyrin; source: COS-7, transfected, in cells; spinal cord neurons, lentivirus infected, in cells
- stoichiometry N [4]: 1 gephyrin trimer per receptor complex
- stoichiometry N [5]: 3

B3: Dendra2-GlyRα1 (FU-SP-myc-Dendra2-GlyRα1) (receptor, rat, UniProt P07727-1 29-457, looked up)
chain: ARSAPKPMSPSDFLDKLMGRTSGYDARIRPNFKGPPVNVSCNIFINSFGSIAETTMDYRVNIFLRQQWNDPRLAYNEYPDDSLDLDPSMLDSIWKPDLFFANEKGAHFHEITTDNKLLRISRNGNVLYSIRITLTLACPMDLKNFPMDVQTCIMQLESFGYTMNDLIFEWQEQGAVQVADGLTLPQFILKEEKDLRYCTKHYNTGKFTCIEARFHLERQMGYYLIQMYIPSLLIVILSWISFWINMDAAPARVGLGITTVLTMTTQSSGSRASLPKVSYVKAIDIWMAVCLLFVFSALLEYAAVNFVSRQHKELLRFRRKRRHHKSPMLNLFQDDEGGEGRFNFSAYGMGPACLQAKDGISVKGANNNNTTNPAPAPSKSPEEMRKLFIQRAKKIDKISRIGFPMAFLIFNMFYWIIYKIVRREDVHNK
notes: rat glycine receptor alpha-1 subunit, isoform a; Five copies hold for the homomeric receptor (expressed alone in COS-7); also called homomeric Dendra2-GlyRα1; source: COS-7, transfected (FuGENE 6), in cells; spinal cord neurons, lentivirus infected, in cells; not shown: myc, N-terminal, kept; Dendra2, N-terminal, kept
- stoichiometry N [3]: 1.5 α:β (3:2)
